# Laboratory results: article PMC12828721
# Columns and labels:
# [1] = molecular target: murine CD64 (FcγRI) (UniProt P26151); assay: ELISA; conditions: highest concentration point (about 1e4 nM); parent: est. 1.2; read off a plot
# [2] = molecular target: human CD64 (FcγRI) (UniProt P12314); assay: ELISA; conditions: highest concentration point (about 500 nM); parent: est. 3.4; read off a plot
# [3] = molecular target: MSLN; assay: BLI (Blitz); conditions: 800nM trace, read at end of association (about 120 s); parent: est. 0.63; read off a plot
# Sequence of UniProt P12314 (P12314 16-374): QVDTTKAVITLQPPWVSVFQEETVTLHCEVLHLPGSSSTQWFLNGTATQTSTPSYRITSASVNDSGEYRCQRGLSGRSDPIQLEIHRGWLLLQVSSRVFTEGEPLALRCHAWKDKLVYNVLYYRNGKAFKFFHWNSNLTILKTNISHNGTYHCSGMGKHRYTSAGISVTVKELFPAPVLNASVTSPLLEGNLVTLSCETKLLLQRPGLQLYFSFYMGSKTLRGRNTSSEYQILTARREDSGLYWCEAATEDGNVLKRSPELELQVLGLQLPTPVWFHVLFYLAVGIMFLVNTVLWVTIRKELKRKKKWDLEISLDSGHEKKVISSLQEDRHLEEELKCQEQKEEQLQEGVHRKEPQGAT
# Sequence of UniProt P26151 (P26151 25-404): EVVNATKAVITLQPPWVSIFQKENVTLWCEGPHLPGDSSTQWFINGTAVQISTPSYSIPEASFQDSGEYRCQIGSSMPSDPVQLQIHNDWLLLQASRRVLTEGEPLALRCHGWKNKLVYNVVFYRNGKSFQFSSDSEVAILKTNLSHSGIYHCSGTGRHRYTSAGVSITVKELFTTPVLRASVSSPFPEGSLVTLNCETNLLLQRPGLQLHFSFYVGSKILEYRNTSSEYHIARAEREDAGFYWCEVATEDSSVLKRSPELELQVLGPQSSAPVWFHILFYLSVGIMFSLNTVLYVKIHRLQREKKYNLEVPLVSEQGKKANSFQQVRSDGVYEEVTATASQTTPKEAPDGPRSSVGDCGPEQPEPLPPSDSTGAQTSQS
Substance,response [1],response [2],response [3]
2A10-VH-FcWT (from UniProt P01857) L234A; L235A; P329G,0.25 OD450,0.22 OD450,0.78 nm
2A10-VH-FcWT (from UniProt P01857) G236R; L328R,0.3 OD450,0.27 OD450,0.78 nm
